T1: full-length FIS2 polypeptide (Arabidopsis thaliana, UniProt P0DKJ7 1-813, limits assumed)
T1 construct: The full-length FIS2 cDNA was cloned into pGBT9 and pGAD424; the vector-encoded fusion domain is not included
T1 sequence: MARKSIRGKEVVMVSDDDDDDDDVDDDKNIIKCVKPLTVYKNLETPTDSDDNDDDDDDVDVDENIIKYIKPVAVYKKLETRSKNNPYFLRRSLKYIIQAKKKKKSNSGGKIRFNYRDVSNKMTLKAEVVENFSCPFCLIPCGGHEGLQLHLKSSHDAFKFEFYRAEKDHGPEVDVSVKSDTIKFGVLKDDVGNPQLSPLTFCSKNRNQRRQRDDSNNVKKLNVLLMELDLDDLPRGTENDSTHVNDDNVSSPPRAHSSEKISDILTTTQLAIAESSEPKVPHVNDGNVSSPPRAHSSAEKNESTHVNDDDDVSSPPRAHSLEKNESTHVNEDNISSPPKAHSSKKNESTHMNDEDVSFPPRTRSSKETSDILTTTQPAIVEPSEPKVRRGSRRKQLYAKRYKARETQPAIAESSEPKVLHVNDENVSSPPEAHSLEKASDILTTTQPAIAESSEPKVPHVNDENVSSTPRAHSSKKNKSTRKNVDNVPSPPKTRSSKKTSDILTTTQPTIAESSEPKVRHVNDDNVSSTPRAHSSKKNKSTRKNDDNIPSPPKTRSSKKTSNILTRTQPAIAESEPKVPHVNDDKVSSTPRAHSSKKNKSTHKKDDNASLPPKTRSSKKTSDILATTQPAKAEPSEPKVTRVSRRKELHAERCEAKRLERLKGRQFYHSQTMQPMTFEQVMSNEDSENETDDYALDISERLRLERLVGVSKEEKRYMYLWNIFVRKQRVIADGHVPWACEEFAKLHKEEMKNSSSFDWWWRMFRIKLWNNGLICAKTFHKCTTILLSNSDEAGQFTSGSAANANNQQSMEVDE

B1: full-length FIS3 polypeptide (other)
chain: MSKITLGNESIVGSLTPSNKKSYKVTNRIQEGKKPLYAVVFNFLDARFFDVFVTAGGNRITLYNCLGDGAISALQSYADEDKEESFYTVSWACGVNGNPYVAAGGVKGIIRVIDVNSETIHKSLVGHGDSVNEIRTQPLKPQLVITASKDESVRLWNVETGICILIFAGAGGHRYEVLSVDFHPSDIYRFASCGMDTTIKIWSMKEFWTYVEKSFTWTDDPSKFPTKFVQFPVFTASIHTNYVDCNRWFGDFILSKSVDNEILLWEPQLKENSPGEGASDVLLRYPVPMCDIWFIKFSCDLHLSSVAIGNQEGKVYVWDLKSCPPVLITKLSHNQSKSVIRQTAMSVDGSTILACCEDGTIWRWDVITK
notes: The full-length FIS3 cDNA was cloned into pGBT9 and pGAD424; the vector-encoded fusion domain is not included; also called FIE
B2: full-length FIS1 polypeptide (other)
chain: MEKENHEDDGEGLPPELNQIKEQIEKERFLHIKRKFELRYIPSVATHASHHQSFDLNQPAAEDDNGGDNKSLLSRMQNPLRHFSASSDYNSYEDQGYVLDEDQDYALEEDVPLFLDEDVPLLPSVKLPIVEKLPRSITWVFTKSSQLMAESDSVIGKRQIYYLNGEALELSSEEDEEDEEEDEEEIKKEKCEFSEDVDRFIWTVGQDYGLDDLVVRRALAKYLEVDVSDILERYNELKLKNDGTAGEASDLTSKTITTAFQDFADRRHCRRCMIFDCHMHEKYEPESRSSEDKSSLFEDEDRQPCSEHCYLKVRSVTEADHVMDNDNSISNKIVVSDPNNTMWTPVEKDLYLKGIEIFGRNSCDVALNILRGLKTCLEIYNYMREQDQCTMSLDLNKTTQRHNQVTKKVSRKSSRSVRKKSRLRKYARYPPALKKTTSGEAKFYKHYTPCTCKSKCGQQCPCLTHENCCEKYCGCSKDCNNRFGGCNCAIGQCTNRQCPCFAANRECDPDLCRSCPLSCGDGTLGETPVQIQCKNMQFLLQTNKKILIGKSDVHGWGAFTWDSLKKNEYLGEYTGELITHDEANERGRIEDRIGSSYLFTLNDQLEIDARRKGNEFKFLNHSARPNCYAKLMIVRGDQRIGLFAERAIEEGEELFFDYCYGPEHADWSRGREPRKTGASKRSKEARPAR
notes: Expressed in yeast from the two-hybrid vectors pGBT9 and pGAD424, so it was a fusion with the vector-encoded domain; also called MEDEA/FIS1; MEA

Assays:
[1] = target: T1, full-length FIS2 polypeptide; test: yeast two-hybrid (pGBT9 / pGAD424, adenine selection and beta-galactosidase)
Source text: (§1) In particular, the full-length FIS1 cDNA sequence, encoding a 689 amino acid polypeptide comprising the A, C5, N, CXC and SET domains, and the deletion mutants designated: ΔBgl, encoding a 513 amino acid polypeptide and lacking the C-terminal SET domain-encoding region; ΔBcl, encoding a 320 amino acid polypeptide and lacking the C-terminal N, CXC and SET domain-encoding regions; ΔPst, encoding a 62 amino acid polypeptide and lacking the C-terminal portion of FIS1 comprising the five domain-encoding regions; and Δ160, lacking 160 bp at the 5′-end of the FIS1 cDNA, were constructed (FIG. 27). The full-length FIS2 and FIS3 cDNAs were also used. Control constructs, employing the empty vectors pGBT9 and pGAD424, or alternatively the EzA1 cDNA, were also used. Each cDNA was cloned into each vector and yeast were transformed with vectors expressing different FIS polypeptides, in the presence of adenine selection and β-Galactosidase activation, to select for cells expressing from both constructs.

[2] = target: B2; test: yeast two-hybrid
Source text: as §1

yeast two-hybrid = target: the molecule itself; test: yeast two-hybrid
Source text: as §1

[3] = target: B1; test: yeast two-hybrid
Source text: as §1

Binder | binding result [1] | binding result [2] | binding result (yeast two-hybrid) | binding result [3]
B1 | no binding | binds |  | 
B2 |  |  | binds | 
FIS1 deletion mutant Bcl (320 amino acid polypeptide comprising the A and C5 regions only) (other, Expressed as a yeast two-hybrid vector fusion (pGBT9 / pGAD424); the fusion domain is not included; also called delta-Bcl; truncated FIS1 having the C-terminal 369 amino acids containing the N, CXC and SET domains deleted) MEKENHEDDGEGLPPELNQIKEQIEKERFLHIKRKFELRYIPSVATHASHHQSFDLNQPAAEDDNGGDNKSLLSRMQNPLRHFSASSDYNSYEDQGYVLDEDQDYALEEDVPLFLDEDVPLLPSVKLPIVEKLPRSITWVFTKSSQLMAESDSVIGKRQIYYLNGEALELSSEEDEEDEEEDEEEIKKEKCEFSEDVDRFIWTVGQDYGLDDLVVRRALAKYLEVDVSDILERYNELKLKNDGTAGEASDLTSKTITTAFQDFADRRHCRRCMIFDCHMHEKYEPESRSSEDKSSLFEDEDRQPCSEHCYLKVRSVTEAD |  | binds |  | binds
